Assay results from article PMC9032424 (PLoS ONE, 2022).
Changes are numbered by the printed parent chain. Names and notes keep the numbering of the source.

T1: HisH (glutaminase subunit of Imidazole Glycerol Phosphate Synthase) from Thermotoga maritima (Thermotoga maritima, UniProt Q9X0C8 1-201)
T1 construct: HisH, Thermotoga maritima; cloned NdeI/XhoI into pET28a; No removal of the His-tag is described; source: bacteria transformed with pET28a, purified (70°C heat step, Ni-NTA agarose)
T1 sequence: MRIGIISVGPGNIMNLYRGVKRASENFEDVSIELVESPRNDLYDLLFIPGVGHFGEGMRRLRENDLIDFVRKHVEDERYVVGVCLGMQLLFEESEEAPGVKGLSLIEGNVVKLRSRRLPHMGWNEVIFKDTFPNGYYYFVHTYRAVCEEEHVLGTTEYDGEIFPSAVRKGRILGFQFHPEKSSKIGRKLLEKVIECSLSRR

B1: HisF E167A (enzyme, Thermotoga maritima)
chain: MLAKRIIACLDVKDGRVVKGTNFENLRDSGDPVELGKFYSEIGIDELVFLDITASVEKRKTMLELVEKVAEQIDIPFTVGGGIHDFETASELILRGADKVSINTAAVENPSLITQIAQTFGSQAVVVAIDAKRVDGEFMVFTYSGKKNTGILLRDWVVEVEKRGAGAILLTSIDRDGTKSGYDTEMIRFVRPLTTLPIIASGGAGKMEHFLEAFLAGADAALAASVFHFREIDVRELKEYLKKHGVNVRLEGL
notes: HisF, Thermotoga maritima, with the single mutation E167A; parent is the HisF of m1; probably as the His-tagged wild-type HisF; also called mutant HisF
B2: HisF L169A (enzyme, Thermotoga maritima)
chain: B1 chain with A167E, L169A
notes: HisF, Thermotoga maritima, with the single mutation L169A; parent is the HisF of m1; probably as the His-tagged wild-type HisF; also called mutant HisF
B3: HisF F210A (enzyme, Thermotoga maritima)
chain: B1 chain with A167E, F210A
notes: HisF, Thermotoga maritima, with the single mutation F210A; parent is the HisF of m1; probably as the His-tagged wild-type HisF; also called mutant HisF
B4: HisF K13A (enzyme, Thermotoga maritima)
chain: B1 chain with K13A, A167E
notes: HisF, Thermotoga maritima, with the single mutation K13A; parent is the HisF of m1; probably as the His-tagged wild-type HisF; also called mutant HisF

The binders below were run against T1, HisH (glutaminase subunit of Imidazole …) (assay: other fluorescence titration; intrinsic tryptophan fluorescence; 15 uM HisH mixed with sub-stoichiometric HisF (1 to 5 uM); 20 mM potassium phosphate pH 7.5; excitation 295 nm, difference spectra read at 321 nm; fluorescence as proxy of concentrations; 30°C). Details: both partners purified.

| Binder | fold increase of Kd against wild-type HisF [fold] |
| --- | --- |
| B1 | 10 |
| B2 | ~3 |
| B3 | ~3 |
| B4 | ~3 |
